According to PMC12329532 (2025):

Assays:
Experiment in all cases: FP
[1] = target: His6-IDO1 K101A, purified (human, UniProt P14902 1-403, K101A, Alexa Fluor 488 on Cys groups)
[2] = target: His6-IDO1 K101D, purified (human, UniProt P14902 1-403, K101D, Alexa Fluor 488 on Cys groups)
[3] = target: N-terminally His6-tagged human IDO1 (indoleamine 2,3-dioxygenase 1), purified apo-IDO1 (human, UniProt P14902 1-403, Alexa Fluor 488 on Cys groups (in the fluorescence polarisation assay only))
N-terminally His6-tagged human IDO1 (indoleamine 2,3-dioxygenase 1), purified apo-IDO1, sequence (P14902 whole entry): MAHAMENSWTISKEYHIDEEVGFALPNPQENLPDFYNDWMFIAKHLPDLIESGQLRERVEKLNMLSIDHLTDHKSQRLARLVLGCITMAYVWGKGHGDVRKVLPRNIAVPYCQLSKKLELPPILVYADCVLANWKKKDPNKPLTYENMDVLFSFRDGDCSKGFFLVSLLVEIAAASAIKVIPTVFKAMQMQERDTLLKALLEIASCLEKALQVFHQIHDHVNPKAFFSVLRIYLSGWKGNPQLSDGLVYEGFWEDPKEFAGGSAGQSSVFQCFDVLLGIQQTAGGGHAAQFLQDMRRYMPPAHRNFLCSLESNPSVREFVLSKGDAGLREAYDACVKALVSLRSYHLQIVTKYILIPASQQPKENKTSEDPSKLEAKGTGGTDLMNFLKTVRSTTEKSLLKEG

B1: human recombinant TC-GAPDH (GAPDH with a tetra-Cys insertion sequence near its heme binding site), wild type, purified (enzyme)
chain: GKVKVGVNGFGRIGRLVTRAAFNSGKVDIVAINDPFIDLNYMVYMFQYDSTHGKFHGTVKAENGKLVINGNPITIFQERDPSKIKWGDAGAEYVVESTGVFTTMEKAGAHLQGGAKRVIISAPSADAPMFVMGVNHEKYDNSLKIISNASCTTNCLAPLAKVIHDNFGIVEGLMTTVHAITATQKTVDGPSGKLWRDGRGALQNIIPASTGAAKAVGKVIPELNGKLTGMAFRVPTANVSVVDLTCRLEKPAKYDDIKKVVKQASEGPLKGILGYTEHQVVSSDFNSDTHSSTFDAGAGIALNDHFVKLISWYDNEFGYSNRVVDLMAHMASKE
For B1, which Kd [1] is on record?
The Kd was 4.66 µM.

What about the Kd [2] of the same binder?
Its Kd is 4.45 µM.

And the Kd [3]?
The Kd was 1790 nM.
